Values belong to the substance of their own block, whether it stands above or below them.
How the values were obtained:
[1] = target: human PCSK9 (proprotein convertase subtilisin kexin type 9) (human) (UniProt Q8NBP7); experiment: BIAcore solution equilibrium, pH 7.4
[2] = target: human PCSK9 (proprotein convertase subtilisin kexin type 9) (human) (UniProt Q8NBP7); experiment: BIAcore solution equilibrium, pH 5.5
[3] = target: cynomolgus monkey PCSK9 (cynomolgus monkey); experiment: BIAcore solution equilibrium, column To Cyno PCSK9
[4] = target: human PCSK9 (proprotein convertase subtilisin kexin type 9) (human) (UniProt Q8NBP7); experiment: BIAcore solution equilibrium, pH 6.0
[5] = target: cynomolgus monkey PCSK9 (cynomolgus monkey); experiment: BIAcore, antibody immobilised, pH 7.4
[6] = target: cynomolgus monkey PCSK9 (cynomolgus monkey); experiment: KinExA solution equilibrium
31H4, anti-PCSK9 huIgG4 = experiment: KinExA solution equilibrium, % free 31H4.1 against [cPCSK9]; curve with diamonds; 10 pM or 100 pM 31H4 series not labelled
Sequence of 31H4, anti-PCSK9 huIgG4 (heavy, as listed by the source, chain 1 of 2): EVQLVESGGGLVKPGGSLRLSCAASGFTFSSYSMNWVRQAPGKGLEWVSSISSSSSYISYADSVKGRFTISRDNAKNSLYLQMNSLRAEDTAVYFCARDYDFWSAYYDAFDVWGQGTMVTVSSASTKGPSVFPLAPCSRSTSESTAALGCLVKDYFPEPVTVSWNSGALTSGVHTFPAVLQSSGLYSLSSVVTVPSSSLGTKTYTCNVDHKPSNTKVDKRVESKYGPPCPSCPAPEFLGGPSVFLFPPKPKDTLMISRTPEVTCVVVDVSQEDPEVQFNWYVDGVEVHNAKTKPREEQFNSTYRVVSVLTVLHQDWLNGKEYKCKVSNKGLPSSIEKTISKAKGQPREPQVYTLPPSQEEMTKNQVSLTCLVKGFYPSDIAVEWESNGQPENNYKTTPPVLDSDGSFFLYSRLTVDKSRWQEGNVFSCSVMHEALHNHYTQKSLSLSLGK
Sequence of 31H4, anti-PCSK9 huIgG4 (light, as listed by the source, chain 2 of 2): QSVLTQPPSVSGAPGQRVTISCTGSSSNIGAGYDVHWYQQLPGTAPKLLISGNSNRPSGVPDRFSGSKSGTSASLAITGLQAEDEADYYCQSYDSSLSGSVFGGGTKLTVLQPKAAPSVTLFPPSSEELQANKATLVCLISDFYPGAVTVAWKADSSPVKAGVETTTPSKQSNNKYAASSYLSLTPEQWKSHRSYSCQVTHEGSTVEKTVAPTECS

Kd [1]: 19 pM
Kd [2]: 28 pM
Kd [3]: 8 pM
Kd [4]: 6 pM
Substance: AMG145 (antibody)

Kd [5]: 190 pM
Kd [6]: 2 pM
Substance: 31H4, anti-PCSK9 huIgG4 (antibody)

IC50 (read off the curve) (31H4, anti-PCSK9 huIgG4): 10 pM
Substance: cynomolgus monkey PCSK9 (from UniProt A0A7N9D9N8 150-747) (enzyme)

Source: US20130072665A1
